Laboratory results: US11130793B2, “GLP-1/GLP-2 dual agonists” (Zealand Pharma A/S, priority 2016, dated 2021)
Square brackets hold non-standard residues; d marks the D form. Aib = CC(C)(N)C(=O)O

Key:
[1] = target: T1, human GLP-2 receptor (hGLP2-R) (human, UniProt O95838); assay: cell-based or functional assay
T1 sequence: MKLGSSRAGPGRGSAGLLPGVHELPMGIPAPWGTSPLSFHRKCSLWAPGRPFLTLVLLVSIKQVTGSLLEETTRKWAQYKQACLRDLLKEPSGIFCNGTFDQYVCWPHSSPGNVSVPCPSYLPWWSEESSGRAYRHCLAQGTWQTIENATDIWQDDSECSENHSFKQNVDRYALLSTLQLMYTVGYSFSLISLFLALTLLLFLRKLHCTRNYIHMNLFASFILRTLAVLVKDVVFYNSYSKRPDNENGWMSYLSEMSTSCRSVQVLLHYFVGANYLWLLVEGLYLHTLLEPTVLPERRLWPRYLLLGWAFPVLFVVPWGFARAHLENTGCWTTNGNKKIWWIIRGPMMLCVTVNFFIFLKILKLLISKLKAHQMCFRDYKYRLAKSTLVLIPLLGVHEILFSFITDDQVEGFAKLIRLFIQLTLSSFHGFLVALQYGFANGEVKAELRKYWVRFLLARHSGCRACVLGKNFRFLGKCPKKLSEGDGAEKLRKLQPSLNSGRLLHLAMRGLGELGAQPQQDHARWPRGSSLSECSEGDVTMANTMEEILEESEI

[2] = target: human glucagon-like peptide 1 receptor (GLP-1R) (human, UniProt P43220); assay: cell-based or functional assay

B1: Compound 22 (peptide)
peptide: H-H[Aib]EGSFTSELATILDEQAARDFIAWLHAHKITD-OH
SMILES: CC[C@H](C)[C@H](NC(=O)[C@H](Cc1ccccc1)NC(=O)[C@H](CC(=O)O)NC(=O)[C@H](CCCNC(=N)N)NC(=O)[C@H](C)NC(=O)[C@H](C)NC(=O)[C@H](CCC(N)=O)NC(=O)[C@H](CCC(=O)O)NC(=O)[C@H](CC(=O)O)NC(=O)[C@H](CC(C)C)NC(=O)[C@@H](NC(=O)[C@@H](NC(=O)[C@H](C)NC(=O)[C@H](CC(C)C)NC(=O)[C@H](CCC(=O)O)NC(=O)[C@H](CO)NC(=O)[C@@H](NC(=O)[C@H](Cc1ccccc1)NC(=O)[C@H](CO)NC(=O)CNC(=O)[C@H](CCC(=O)O)NC(=O)C(C)(C)NC(=O)[C@@H](N)Cc1c[nH]cn1)[C@@H](C)O)[C@@H](C)O)[C@@H](C)CC)C(=O)N[C@@H](C)C(=O)N[C@@H](Cc1c[nH]c2ccccc12)C(=O)N[C@@H](CC(C)C)C(=O)N[C@@H](Cc1c[nH]cn1)C(=O)N[C@@H](C)C(=O)N[C@@H](Cc1c[nH]cn1)C(=O)N[C@@H](CCCCN)C(=O)N[C@H](C(=O)N[C@H](C(=O)N[C@@H](CC(=O)O)C(=O)O)[C@@H](C)O)[C@@H](C)CC
For B1, the “EC50 GLP-2 (nM); cAMP AlphaScreen” value [1] was 0.042 nM and the “EC50 GLP-1 (nM); cAMP AlphaScreen” value [2] was 0.28 nM.

B2: Compound 23 (peptide)
peptide: H-H[Aib]EGSFTSELATILDEQAARDFIAWLYEHKITD-OH
SMILES: CC[C@H](C)[C@H](NC(=O)[C@H](Cc1ccccc1)NC(=O)[C@H](CC(=O)O)NC(=O)[C@H](CCCNC(=N)N)NC(=O)[C@H](C)NC(=O)[C@H](C)NC(=O)[C@H](CCC(N)=O)NC(=O)[C@H](CCC(=O)O)NC(=O)[C@H](CC(=O)O)NC(=O)[C@H](CC(C)C)NC(=O)[C@@H](NC(=O)[C@@H](NC(=O)[C@H](C)NC(=O)[C@H](CC(C)C)NC(=O)[C@H](CCC(=O)O)NC(=O)[C@H](CO)NC(=O)[C@@H](NC(=O)[C@H](Cc1ccccc1)NC(=O)[C@H](CO)NC(=O)CNC(=O)[C@H](CCC(=O)O)NC(=O)C(C)(C)NC(=O)[C@@H](N)Cc1c[nH]cn1)[C@@H](C)O)[C@@H](C)O)[C@@H](C)CC)C(=O)N[C@@H](C)C(=O)N[C@@H](Cc1c[nH]c2ccccc12)C(=O)N[C@@H](CC(C)C)C(=O)N[C@@H](Cc1ccc(O)cc1)C(=O)N[C@@H](CCC(=O)O)C(=O)N[C@@H](Cc1c[nH]cn1)C(=O)N[C@@H](CCCCN)C(=O)N[C@H](C(=O)N[C@H](C(=O)N[C@@H](CC(=O)O)C(=O)O)[C@@H](C)O)[C@@H](C)CC
With B2 the “EC50 GLP-2 (nM); cAMP AlphaScreen” value [1] was 0.034 nM and the “EC50 GLP-1 (nM); cAMP AlphaScreen” value [2] was 0.12 nM.

B3: Compound 1 (peptide)
peptide: H-H[Aib]EGSFTSELATILDEQAARDFIAWLIAHKITD-OH
SMILES: CC[C@H](C)[C@H](NC(=O)[C@H](CC(C)C)NC(=O)[C@H](Cc1c[nH]c2ccccc12)NC(=O)[C@H](C)NC(=O)[C@@H](NC(=O)[C@H](Cc1ccccc1)NC(=O)[C@H](CC(=O)O)NC(=O)[C@H](CCCNC(=N)N)NC(=O)[C@H](C)NC(=O)[C@H](C)NC(=O)[C@H](CCC(N)=O)NC(=O)[C@H](CCC(=O)O)NC(=O)[C@H](CC(=O)O)NC(=O)[C@H](CC(C)C)NC(=O)[C@@H](NC(=O)[C@@H](NC(=O)[C@H](C)NC(=O)[C@H](CC(C)C)NC(=O)[C@H](CCC(=O)O)NC(=O)[C@H](CO)NC(=O)[C@@H](NC(=O)[C@H](Cc1ccccc1)NC(=O)[C@H](CO)NC(=O)CNC(=O)[C@H](CCC(=O)O)NC(=O)C(C)(C)NC(=O)[C@@H](N)Cc1c[nH]cn1)[C@@H](C)O)[C@@H](C)O)[C@@H](C)CC)[C@@H](C)CC)C(=O)N[C@@H](C)C(=O)N[C@@H](Cc1c[nH]cn1)C(=O)N[C@@H](CCCCN)C(=O)N[C@H](C(=O)N[C@H](C(=O)N[C@@H](CC(=O)O)C(=O)O)[C@@H](C)O)[C@@H](C)CC
With B3 the “EC50 GLP-2 (nM); cAMP AlphaScreen” value [1] was 0.036 nM and the “EC50 GLP-1 (nM); cAMP AlphaScreen” value [2] was 0.014 nM.

B4: Compound 24 (peptide)
peptide: H-H[Aib]EGSFTSELATILDEQAARDFIAWLQAHKITD-OH
SMILES: CC[C@H](C)[C@H](NC(=O)[C@H](Cc1ccccc1)NC(=O)[C@H](CC(=O)O)NC(=O)[C@H](CCCNC(=N)N)NC(=O)[C@H](C)NC(=O)[C@H](C)NC(=O)[C@H](CCC(N)=O)NC(=O)[C@H](CCC(=O)O)NC(=O)[C@H](CC(=O)O)NC(=O)[C@H](CC(C)C)NC(=O)[C@@H](NC(=O)[C@@H](NC(=O)[C@H](C)NC(=O)[C@H](CC(C)C)NC(=O)[C@H](CCC(=O)O)NC(=O)[C@H](CO)NC(=O)[C@@H](NC(=O)[C@H](Cc1ccccc1)NC(=O)[C@H](CO)NC(=O)CNC(=O)[C@H](CCC(=O)O)NC(=O)C(C)(C)NC(=O)[C@@H](N)Cc1c[nH]cn1)[C@@H](C)O)[C@@H](C)O)[C@@H](C)CC)C(=O)N[C@@H](C)C(=O)N[C@@H](Cc1c[nH]c2ccccc12)C(=O)N[C@@H](CC(C)C)C(=O)N[C@@H](CCC(N)=O)C(=O)N[C@@H](C)C(=O)N[C@@H](Cc1c[nH]cn1)C(=O)N[C@@H](CCCCN)C(=O)N[C@H](C(=O)N[C@H](C(=O)N[C@@H](CC(=O)O)C(=O)O)[C@@H](C)O)[C@@H](C)CC
For B4, the “EC50 GLP-2 (nM); cAMP AlphaScreen” value [1] was 0.049 nM and the “EC50 GLP-1 (nM); cAMP AlphaScreen” value [2] was 0.042 nM.

B5: Compound 25 (peptide)
peptide: H-H[Aib]EGSFTSELATILDEQAARDFIAWLIAQKITD-OH
SMILES: CC[C@H](C)[C@H](NC(=O)[C@H](CC(C)C)NC(=O)[C@H](Cc1c[nH]c2ccccc12)NC(=O)[C@H](C)NC(=O)[C@@H](NC(=O)[C@H](Cc1ccccc1)NC(=O)[C@H](CC(=O)O)NC(=O)[C@H](CCCNC(=N)N)NC(=O)[C@H](C)NC(=O)[C@H](C)NC(=O)[C@H](CCC(N)=O)NC(=O)[C@H](CCC(=O)O)NC(=O)[C@H](CC(=O)O)NC(=O)[C@H](CC(C)C)NC(=O)[C@@H](NC(=O)[C@@H](NC(=O)[C@H](C)NC(=O)[C@H](CC(C)C)NC(=O)[C@H](CCC(=O)O)NC(=O)[C@H](CO)NC(=O)[C@@H](NC(=O)[C@H](Cc1ccccc1)NC(=O)[C@H](CO)NC(=O)CNC(=O)[C@H](CCC(=O)O)NC(=O)C(C)(C)NC(=O)[C@@H](N)Cc1c[nH]cn1)[C@@H](C)O)[C@@H](C)O)[C@@H](C)CC)[C@@H](C)CC)C(=O)N[C@@H](C)C(=O)N[C@@H](CCC(N)=O)C(=O)N[C@@H](CCCCN)C(=O)N[C@H](C(=O)N[C@H](C(=O)N[C@@H](CC(=O)O)C(=O)O)[C@@H](C)O)[C@@H](C)CC
In the case of B5, the “EC50 GLP-2 (nM); cAMP AlphaScreen” value [1] is reported as 0.062 nM and the “EC50 GLP-1 (nM); cAMP AlphaScreen” value [2] is reported as 0.008 nM.

B6: Compound 26 (peptide)
peptide: H-H[Aib]EGTFTSELATILDEQAARDFIAWLQAQKITD-OH
SMILES: CC[C@H](C)[C@H](NC(=O)[C@H](Cc1ccccc1)NC(=O)[C@H](CC(=O)O)NC(=O)[C@H](CCCNC(=N)N)NC(=O)[C@H](C)NC(=O)[C@H](C)NC(=O)[C@H](CCC(N)=O)NC(=O)[C@H](CCC(=O)O)NC(=O)[C@H](CC(=O)O)NC(=O)[C@H](CC(C)C)NC(=O)[C@@H](NC(=O)[C@@H](NC(=O)[C@H](C)NC(=O)[C@H](CC(C)C)NC(=O)[C@H](CCC(=O)O)NC(=O)[C@H](CO)NC(=O)[C@@H](NC(=O)[C@H](Cc1ccccc1)NC(=O)[C@@H](NC(=O)CNC(=O)[C@H](CCC(=O)O)NC(=O)C(C)(C)NC(=O)[C@@H](N)Cc1c[nH]cn1)[C@@H](C)O)[C@@H](C)O)[C@@H](C)O)[C@@H](C)CC)C(=O)N[C@@H](C)C(=O)N[C@@H](Cc1c[nH]c2ccccc12)C(=O)N[C@@H](CC(C)C)C(=O)N[C@@H](CCC(N)=O)C(=O)N[C@@H](C)C(=O)N[C@@H](CCC(N)=O)C(=O)N[C@@H](CCCCN)C(=O)N[C@H](C(=O)N[C@H](C(=O)N[C@@H](CC(=O)O)C(=O)O)[C@@H](C)O)[C@@H](C)CC
With B6 the “EC50 GLP-2 (nM); cAMP AlphaScreen” value [1] was 0.19 nM and the “EC50 GLP-1 (nM); cAMP AlphaScreen” value [2] was 0.013 nM.

B7: Compound 27 (peptide)
peptide: H-H[Aib]EGTFTSELSTILDEQAARDFIAWLHAQKITD-OH
modifications: not fully specified; printed as Hy-H[Aib]EGTFTSELSTILDEQAARDFIAWLHAQKITD-OH
In the case of B7, the “EC50 GLP-2 (nM); cAMP AlphaScreen” value [1] is reported as 0.37 nM and the “EC50 GLP-1 (nM); cAMP AlphaScreen” value [2] is reported as 0.12 nM.

B8: Compound 28 (peptide)
peptide: H-H[Aib]EGSFTSELATILDEQAARDFIAWLYAHKITD-OH
SMILES: CC[C@H](C)[C@H](NC(=O)[C@H](Cc1ccccc1)NC(=O)[C@H](CC(=O)O)NC(=O)[C@H](CCCNC(=N)N)NC(=O)[C@H](C)NC(=O)[C@H](C)NC(=O)[C@H](CCC(N)=O)NC(=O)[C@H](CCC(=O)O)NC(=O)[C@H](CC(=O)O)NC(=O)[C@H](CC(C)C)NC(=O)[C@@H](NC(=O)[C@@H](NC(=O)[C@H](C)NC(=O)[C@H](CC(C)C)NC(=O)[C@H](CCC(=O)O)NC(=O)[C@H](CO)NC(=O)[C@@H](NC(=O)[C@H](Cc1ccccc1)NC(=O)[C@H](CO)NC(=O)CNC(=O)[C@H](CCC(=O)O)NC(=O)C(C)(C)NC(=O)[C@@H](N)Cc1c[nH]cn1)[C@@H](C)O)[C@@H](C)O)[C@@H](C)CC)C(=O)N[C@@H](C)C(=O)N[C@@H](Cc1c[nH]c2ccccc12)C(=O)N[C@@H](CC(C)C)C(=O)N[C@@H](Cc1ccc(O)cc1)C(=O)N[C@@H](C)C(=O)N[C@@H](Cc1c[nH]cn1)C(=O)N[C@@H](CCCCN)C(=O)N[C@H](C(=O)N[C@H](C(=O)N[C@@H](CC(=O)O)C(=O)O)[C@@H](C)O)[C@@H](C)CC
For B8, the “EC50 GLP-2 (nM); cAMP AlphaScreen” value [1] was 0.024 nM and the “EC50 GLP-1 (nM); cAMP AlphaScreen” value [2] was 0.11 nM.

B9: Compound 29 (peptide)
peptide: H-H[Aib]EGTFTDELATILDEQAARDFIAWLQAQKITD-OH
modifications: not fully specified; printed as Hy-H[Aib]EGTFTDELATILDEQAARDFIAWLQAQKITD-OH
In the case of B9, the “EC50 GLP-2 (nM); cAMP AlphaScreen” value [1] is reported as 0.11 nM and the “EC50 GLP-1 (nM); cAMP AlphaScreen” value [2] is reported as 0.044 nM.
